For one test, the target named is PKC-βII (Homo sapiens, UniProt P05771). Briefly: ELISA-based competitive binding assay with purified PKC isoform. The settings on record: for inhibition at 50 µM / inhibition at 100 µM / inhibition at 200 µM / calculated binding capacity (100-% n) after subtraction of the DMSO apparent binding capacity: purified PKC-βII; for inhibition at 50 µM / inhibition at 100 µM / inhibition at 200 µM: read-out: calculated binding capacity (100-% n) after subtraction of the DMSO apparent binding capacity; for Affinity for PKC isoform βII: Purified isoform, Table 20. Also on record: key to Affinity for PKC isoform βII: —: no detectable affinity; Low to very low affinity at 10X or 20X or both PRE concentrations in at least one cell line in the cell extract assay; Low affinity in purified isoform assay.; Moderate affinity at 10X or 20X or both PRE concentrations in at least one cell line in the cell extract assay.; High affinity at 10X or 20X or both PRE concentrations in at least one cell line in the cell extract assay; High affinity in purified isoform assay. How it is done:
(§1) Peptides PRE 1, 2, 3, 4, 5, 6, 7, 8, 9, 10, 11, 12 and 13 (see Table 3) were tested for their ability to interfere with binding of PKC isoform-specific antibodies to their target PKC isoforms using a competitive binding assay and purified PKC isoforms.
(§2) Procedure: Competitive binding was assessed using a 96 well plate ELISA-based assay as described below.
(§3) Greiner 96 well ELISA plates were coated with the appropriate PKC isoform diluted in PBSN (PBS with Calcium/Magnesium+0.05% Sodium azide w/w). 50 μL/well at 250 ng/mL was used. Control wells contained PBSN only. Plates were incubated overnight at 4° C.
(§4) The plates were washed 3 times with 200 μL of dH2O per well, then 100 μL of blocking solution was added per well and the plate incubated for 1 h at 37° C. The washing steps with dH2O were repeated and 50 μL of the appropriate PRE solution (PRE stock solution [20 mM in DMSO] diluted in PBSN) was added and the plate incubated for 1 h at room temperature.
(§5) After incubation, 5 μL of 1.1:400 anti-PKC (isoform specific antibody) was added per well (to provide a final concentration of 1:4000). For PKC-epsilon, 1.1:800 dilution was used and for PKC-zeta a 1.1:100 dilution was used due to high and low binding affinity, respectively. The plates were then incubated 1 h at room temperature, followed by washing with dH2O as described above.
(§6) 50 μL of 1:1000 dilution of Alkaline Phosphatase (AP) conjugated antibody (anti-rabbit for all except zeta, which was anti-goat) was then added and the plate incubated for 1 h at room temperature. Washing with dH2O was then repeated. Finally, 100 μL of pNPP solution in pNPP buffer (2 mM MgCl2, 100 mM Sodium bicarbonate in water, pH 9.8) was added to all wells and incubated for 8 minutes for α, βI, βII ε, and ζ, or for 15-20 mins for […] (until sufficient coloration is observed). The reaction was stopped by addition of Stop solution (2N NaOH) and the absorbance at 405 nm was read on a Galaxy Plate reader.
(§7) Controls were PKC without PRE; blank controls, and controls containing the final concentrations of DMSO used for solubilizing the PREs. The non-specific binding capacity related to DMSO was also measured.
(§8) The antibodies used were as follows: anti-PKC α (Cat. No. SC-208); anti-PKC βI (Cat. No. SC-209); anti-PKC βII (Cat. No. SC-210); anti-PKC δ (Cat. No. SC-213); anti-PKC ε (Cat. No. SC-214); anti-PKC ζ (Cat. No. SC-216-G) (all from Santa Cruz Biotechnology, Inc.). The AP-conjugated antibodies were obtained from Jackson Immuno Research Laboratories (West Grove, Pa.).
(§9) Calculations: The OD values measured at 405 nm represent the free PKC coated per well.
(§10) OD405 PKC alone−Blank OD405 of each sample=OD405 coated isoform
(§11) (OD405 of sample X/OD405 coated isoform)×100=% n that represents the percentage of X binding compared to control.
(§12) 100-% n measures the relative binding capacity of X towards the tested isoform.
(§13) The apparent binding capacity of the DMSO samples was then subtracted from X binding capacity.
(§14) All measurements were made in triplicate and the values in the table represent the averaged calculated binding capacity values after subtraction of the DMSO apparent binding capacity (averaged from 12 values, respectively 10.80, 11.20 and 16.40 corresponding to the concentrations of DMSO used to dilute the […] at 200, 100 and 50 μM respectively). The results allow for quantitative comparison of the binding capacity of each PRE towards an individual isoform within each table, but not among isoforms due to differences in sensitivity of the specific antibodies toward the secondary antibody. This applies particularly to PKC-delta. As noted above, the colour development duration was increased 2-3 times and, as a result, the OD405 measurements may be overestimated for this isoform.

The target in another test is T1, PKC-ζ (Homo sapiens, UniProt Q05513).
T1 sequence (Q05513 1-592): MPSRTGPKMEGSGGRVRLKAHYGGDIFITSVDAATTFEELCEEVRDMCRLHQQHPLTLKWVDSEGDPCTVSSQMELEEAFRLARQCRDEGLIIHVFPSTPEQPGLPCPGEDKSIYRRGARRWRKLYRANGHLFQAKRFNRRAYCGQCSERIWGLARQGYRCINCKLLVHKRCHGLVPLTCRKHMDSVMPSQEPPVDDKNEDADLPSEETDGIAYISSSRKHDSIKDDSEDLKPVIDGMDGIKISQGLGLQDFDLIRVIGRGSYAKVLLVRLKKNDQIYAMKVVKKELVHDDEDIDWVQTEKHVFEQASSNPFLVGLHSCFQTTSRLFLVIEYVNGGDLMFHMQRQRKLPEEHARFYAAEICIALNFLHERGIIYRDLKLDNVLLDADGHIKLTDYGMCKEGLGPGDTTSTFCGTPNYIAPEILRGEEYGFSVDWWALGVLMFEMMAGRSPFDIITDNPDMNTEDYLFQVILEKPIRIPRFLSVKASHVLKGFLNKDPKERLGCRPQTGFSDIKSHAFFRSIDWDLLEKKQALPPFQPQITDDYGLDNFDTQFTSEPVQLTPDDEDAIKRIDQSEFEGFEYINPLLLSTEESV
The test is described as above. The arrangement: key to Affinity for PKC isoform ζ: —: no detectable affinity; Low to very low affinity at 10X or 20X or both PRE concentrations in at least one cell line in the cell extract assay; Low affinity in purified isoform assay.; Moderate affinity at 10X or 20X or both PRE concentrations in at least one cell line in the cell extract assay.; High affinity at 10X or 20X or both PRE concentrations in at least one cell line in the cell extract assay; High affinity in purified isoform assay. The settings on record: for inhibition at 50 µM / inhibition at 100 µM / inhibition at 200 µM / calculated binding capacity (100-% n) after subtraction of the DMSO apparent binding capacity: purified PKC-ζ; for inhibition at 50 µM / inhibition at 100 µM / inhibition at 200 µM: read-out: calculated binding capacity (100-% n) after subtraction of the DMSO apparent binding capacity; for Affinity for PKC isoform ζ: Purified isoform, Table 20. The method, then: as §1, §2, §3, §4, §5, §6, §7, §8, §9, §10, §11, §12, §13, §14

PKC-βII, sequence (P05771 1-673 isoform P05771-2): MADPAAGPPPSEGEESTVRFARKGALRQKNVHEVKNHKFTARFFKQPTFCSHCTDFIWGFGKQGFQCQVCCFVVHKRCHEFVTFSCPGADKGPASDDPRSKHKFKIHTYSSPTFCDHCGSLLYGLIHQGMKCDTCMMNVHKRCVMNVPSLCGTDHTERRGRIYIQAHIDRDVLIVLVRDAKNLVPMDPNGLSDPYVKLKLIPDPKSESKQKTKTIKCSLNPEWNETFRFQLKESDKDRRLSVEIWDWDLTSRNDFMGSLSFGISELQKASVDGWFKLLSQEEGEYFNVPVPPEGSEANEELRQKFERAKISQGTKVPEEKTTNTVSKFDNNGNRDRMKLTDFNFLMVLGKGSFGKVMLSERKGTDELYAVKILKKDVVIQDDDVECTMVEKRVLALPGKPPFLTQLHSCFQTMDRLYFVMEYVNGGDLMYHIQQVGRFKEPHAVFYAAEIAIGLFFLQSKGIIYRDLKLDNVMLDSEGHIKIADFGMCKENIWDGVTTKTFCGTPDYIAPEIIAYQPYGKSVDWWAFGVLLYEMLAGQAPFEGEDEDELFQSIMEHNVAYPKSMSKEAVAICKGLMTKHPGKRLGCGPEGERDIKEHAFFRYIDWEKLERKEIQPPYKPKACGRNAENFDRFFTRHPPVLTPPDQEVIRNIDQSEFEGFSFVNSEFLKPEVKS

As to Ac-AKGIQEVKGGDAQNLIGISI-NH2 [PRE 3], the figures for the inhibition at 50 µM at PKC-βII (PRE 50 μM) and on PKC-ζ (PRE 50 μM) were 0% and 14%, respectively. In addition, the inhibition at 100 µM at PKC-βII (PRE 100 μM) was 0%; at PKC-ζ (PRE 100 μM), 23.9%. The values for the inhibition at 200 µM at PKC-βII (PRE 200 μM) and on PKC-ζ (PRE 200 μM) were 3.72% and 29.1%, respectively. Besides, the “Affinity for PKC isoform βII” value at PKC-βII is reported as “—”. At PKC-ζ, the “Affinity for PKC isoform ζ” value is on record as “H”. The “targeting of PKC-ζ” value on PKC-ζ (purified isoform, Tables 14-19) is reported as “targeted by PRE 3 only”.
As for Ac-AKGIQEVKGGKDAQNLIGISI-NH2 [PRE 5], the inhibition at 50 µM on PKC-βII (PRE 50 μM) and on PKC-ζ (PRE 50 μM) was 0% each time. Moreover, the inhibition at 100 µM at PKC-βII (PRE 100 μM) and at PKC-ζ (PRE 100 μM) was 0% throughout. Also, the inhibition at 200 µM on PKC-βII (PRE 200 μM) and at PKC-ζ (PRE 200 μM) was 0% in each case. The “Affinity for PKC isoform βII” value at PKC-βII is on record as “—”. For the same substance, on PKC-ζ, the “Affinity for PKC isoform ζ” value is listed as “—”.
Regarding Ac-ISIGILNQADK-NH2 [PRE 10], the “Affinity for PKC isoform βII” value with PKC-βII is on record as “L”. In addition, the “Affinity for PKC isoform ζ” value in the test with PKC-ζ was “—”.
For Ac-ISIGILQNADK-NH2 [PRE 7], the “calculated binding capacity (100-% n) after subtraction of the DMSO apparent binding capacity” value (“calculated binding capacity (100-% n)” below) with PKC-βII (PRE 50 μM) is recorded as 5.42; in the test with PKC-βII (PRE 100 μM) it was 11.07; in the test with PKC-βII (PRE 200 μM), 2.59. For the same substance, the “Affinity for PKC isoform βII” value with PKC-βII was “—”. Also, the “Affinity for PKC isoform ζ” value with PKC-ζ was “—”.
As to Ac-KDANQLIGISI-NH2 [PRE 6], the “Affinity for PKC isoform βII” value with PKC-βII is recorded as “—”. Further, in the test with PKC-ζ, the “Affinity for PKC isoform ζ” value was “—”.
Ac-KDAQNLI-NH2 [PRE 12]: the “calculated binding capacity (100-% n)” value with PKC-βII (PRE 50 μM) is 4.55; with PKC-ζ (PRE 50 μM), 4.20; with PKC-ζ (PRE 100 μM), 8.77; with PKC-ζ (PRE 200 μM), 0.33. Also, the “Affinity for PKC isoform βII” value in the test with PKC-βII was “—”. Also, the “Affinity for PKC isoform ζ” value with PKC-ζ was “—”.
On to “Ac-KDAQNLIGISI-NH2 [PRE 4, Ac-KDAQNLIGISI-NH2]”, for which the inhibition at 50 µM was 2.69% at PKC-βII (PRE 50 μM) and 0% at PKC-ζ (PRE 50 μM). In addition, the inhibition at 100 µM on PKC-βII (PRE 100 μM) was 13.5%; at PKC-ζ (PRE 100 μM) it was 0%. Also, the inhibition at 200 µM at PKC-βII (PRE 200 μM) was 1.18%; on PKC-ζ (PRE 200 μM), 5.85%. In addition, the “Affinity for PKC isoform βII” value on PKC-βII is recorded as “L”. On PKC-ζ, the “Affinity for PKC isoform ζ” value is listed as “—”.
With Ac-RDAQNLI-NH2 [PRE 13], in the test with PKC-βII, the “Affinity for PKC isoform βII” value is reported as “—”. Moreover, in the test with PKC-ζ, the “Affinity for PKC isoform ζ” value is given as “—”.
In the case of Ac-RDAQNLIGISI-NH2 [PRE 11], the “calculated binding capacity (100-% n)” value was 7.14 with PKC-βII (PRE 50 μM), 11.04 with PKC-βII (PRE 100 μM) and 6.40 with PKC-βII (PRE 200 μM). In the test with PKC-βII, the “Affinity for PKC isoform βII” value is listed as “—”. The “Affinity for PKC isoform ζ” value in the test with PKC-ζ is on record as “—”.
As for Ac-isigilgnadk-NH2 [PRE 9], the “calculated binding capacity (100-% n)” value in the test with PKC-βII (PRE 50 μM) was 8.14; with PKC-βII (PRE 100 μM), 0.3. Moreover, the “Affinity for PKC isoform βII” value with PKC-βII was “H”. The “targeting of PKC-βII” value with PKC-βII (purified isoform, Tables 14-19) is recorded as “targeted most strongly”. Further, the “Affinity for PKC isoform ζ” value with PKC-ζ is “—”.
Take ILEDKGGDAQNLIGISI [PRE 8]: the “calculated binding capacity (100-% n)” value with PKC-βII (PRE 50 μM) was 1.11. Moreover, in the test with PKC-βII, the “Affinity for PKC isoform βII” value is recorded as “—”. Besides, the “Affinity for PKC isoform ζ” value with PKC-ζ is reported as “—”.
For the substance RRKKGGKDFVVKR [PRE 1], in the test with PKC-βII, the “Affinity for PKC isoform βII” value is given as “—”. In addition, the “calculated binding capacity (100-% n)” value with PKC-ζ (PRE 50 μM) was 4.11. In addition, the “Affinity for PKC isoform ζ” value with PKC-ζ is given as “—”.

(Values after patent US20100041597A1, “PEPTIDES TARGETED TO PROTEIN KINASE C ISOFORMS AND USES THEREOF” (priority 2005, published 2010).)
